Data on 7 molecules can be found in US11472844B2, “Peptidomimetics, method of synthesis and uses thereof” (priority 2017, dated 2022).

Where two headings read alike, the source gives them in different places.

The test system of data set [1] is human colonic mucus. The experiment in a line: Fluorescent labelling of human colonic mucus layer. The format is binding. Conditions: 1 μg/mL. The method, then: (§1) Colon explant surgical collection. In summary, human colon segments (ascending, descending, and sigmoid colon) were obtained from fully informed patients undergoing surgery for colon carcinoma and were analyzed anonymously. Patient written consent was obtained, according to the French bioethics law. None of the patients had undergone radiotherapy or chemotherapy. According to the pathologist's examination rules for the longitudinally bisected colon, a healthy segment of tissue, which was distant from the tumor region and devoid of metastatic cells, was removed. Tissues were processed according to the French Government guidelines for research on human tissues and the French Bioethics Act with the authorization no RBM 2009-50.
Fixation and staining procedures. For microscopy studies, purified or cultured cells and polymerized lactoferrin were resuspended onto 24-well plates containing 12 mm coverslips in RMPI 1640+10 mM Hepes (when cultured in the autologous plasma) and centrifuged at 300×g for 10 min. Culture media were removed and cells were fixed in 4% Paraformaldehyde (PFA) for two hours. Fixed cells were washed three times in PBS+0.1% saponin (Sigma-Aldrich), prior immunolabeling with primary antibodies in the same buffer for 1 hour (Triton 0.1% can alternatively be used for cell permeabilization). After three additional washes in PBS+0.1% saponin, secondary antibodies and fluorescent markers were incubated for one hour. […]
(§2) Antibodies, fluorescent markers. For immunofluorescence assay, lactoferrin was detected with a mouse anti-lactoferrin primary monoclonal antibody (Hycult biotech, clone 265-1K1, 1:50 dilution) and an anti-mouse-FITC conjugated secondary antibody (1:1000). Nuclei were detected with DAPI (Life Technologies), Lyophilized MUB40 peptides (MUB40#1 (SEQ ID NO: 3)-Cy5, MUB40#2 (SEQ ID NO: 4)-Cy5, MUB40#3 (SEQ ID NO: 5)-Cy5, MUB40#4 (SEQ ID NO: 6)-Cy5, MUB40#1 (SEQ ID NO: 3)-Dylight, RI-MUB40 (SEQ ID NO: 2)-Cy5, and RI-MUB40 (SEQ ID NO: 2)-Biotin) were solubilized in a phosphate buffer pH8 at a 1 mg/mL concentration and used at a 1:1000 dilution. […]

Data set [2] concerns living human neutrophils. Kind of data set: Live microscopy of neutrophils infected with Shigella flexneri. Conditions: live cells. The data set is classed as cell-based. The method, then: Neutrophil infection. Human purified neutrophils were cultured in glass-bottom dishes (Mattek) for live fluorescent microscopy in a RMPI 1640 (Life Technologies) culture medium supplemented with 10% of heat inactivated Human Serum (Sigma-Aldrich). Neutrophils (5.10^5 cell/mL in 2 mL) were infected with exponentially-grown Shigella flexneri 5a pGFP at a Multiplicity Of Infection (MOI) 20 in RMPI 1640 (Life Technologies) culture medium supplemented with 10 mM Hepes (Life Technologies) at 37° C. Infected neutrophils were centrifuged at 2000 rpm for 10 min prior imaging.
Live epifluorescence microscopy. Viable neutrophils infected with S. flexneri pGFP were imaged on a Definite focus live microscope (Zeiss) equipped with a temperature control chamber (37° C.) and a 63× oil immersion objective. Images were acquired every 60 s. Z-stack images were taken with […] step-size increments. Obtained Z-stack images were processed with Fiji software to generate a Movie and the corresponding extracted images are shown in FIG. 16a.

Data set [3] deals with trypsin (Sus scrofa, UniProt P00761). Conditions: trypsin digestion, 37°C, pH8, followed up to 24 h. As for the experimental part: Trypsin proteolysis. MUB40 (SEQ ID NO: 3)-Cy5 and RI-MUB40 (SEQ ID NO: 2)-Cy5 were dissolved in 50 mM ammonium bicarbonate, pH 8. Prior to digestion and owing to the propensity of maleimide derivatives to undergo ring-opening in a basic environment (Fontaine et al., 2015), we incubated both peptides at 37° C. overnight. Ring-opening completion was checked before trypsin addition. […] Lyophilized trypsin (Thermo scientific) was reconstituted using 50 mM acetic acid, diluted with 50 mM ammonium bicarbonate and added to the peptide solution so as to obtain a final peptide concentration of 0.25 mg/mL and a protease to protein ratio of 1:20 (w/w). Samples were directly incubated on the injection sampler thermostated at 37° c. HPLC and LC-MS analyses were performed as previously described above, applying a 15% to 40% linear gradient of acetonitrile in 10 mM ammonium acetate over 20 minutes.
trypsin, sequence (P00761 9-231): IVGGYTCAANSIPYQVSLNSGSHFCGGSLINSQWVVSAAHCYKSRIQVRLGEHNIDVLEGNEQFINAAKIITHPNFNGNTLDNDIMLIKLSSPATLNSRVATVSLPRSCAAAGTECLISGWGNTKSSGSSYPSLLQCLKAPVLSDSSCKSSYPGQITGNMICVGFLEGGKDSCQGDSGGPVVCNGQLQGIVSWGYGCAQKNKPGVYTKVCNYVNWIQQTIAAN
Hydrolysis experiments were done in solution at 37° c., pH8 and monitored by HPLC by measuring the peak area of the remaining intact peptides.

The nature of data set [4]: Analytical gel filtration (size exclusion chromatography). The data set is classed as physicochemical. Conditions: for relative masses estimated from standard proteins' elution volume: 10 μg/ml in 20 mM phosphate buffer; for relative masses estimated from standard proteins' elution volume / experimental Mr: 150 mM NaCl, pH7.4; for experimental Mr: 20 mM phosphate buffer; for oligomeric organization: phosphate buffer, vs theoretical MW. The method, then: Size Exclusion Chromatography. Gel filtration was performed using an Agilent 1100 system (Agilent Technologies; Palo Alto, Calif., USA) and monitored by absorbance at 280 nm. MUB40 peptides were solubilized in the gel filtration buffer (20 mM phosphate buffer, 150 mM NaCl, pH7.4) at a concentration of 10 μg/ml, 100 μg/ml, or 1 mg/ml), separately injected on a Yarra™ 3μ SEC-2000 300×7.8 mm column (Phenomenex, Le Pecq, France), and eluted at a 0.5 ml/min flow rate. The column was calibrated with a mixture of standards proteins (ribonuclease A, 13.7 kDa; carbonic anhydrase 29 kDa; ovalbumin 44 kDa; GE Healthcare) complemented with a custom synthetic peptide of our own library (peptide x, 5.1 kDa; Institut Pasteur). The logarithm of the molecular weights were plotted versus the corresponding partition coefficients (Kay=(Ve−Vo)/(Vc−Vo); Ve, elution volume; Vo, void volume; Vc, geometric column volume), giving log(Mr)=2,3108−2,2361Kav as a calibration curve equation.

Data set [5] deals with colonic mucinous carcinoma. Kind of data set: Mucinous carcinoma immunofluorescent staining. Also noted: species or system human. As to conditions: together with anti-Muc2 antibody, 1 μg/mL. As for the experimental part:
FIG. 3. Mucinous carcinoma immunofluorescent staining with MUB40 #1 (SEQ ID NO: 3)-Cy5 (MUB40-Cy5) and anti-Muc2 antibody (with a secondary antibody conjugated with FITC).
Muc2 was stained with an anti-Mucin2 antibody (green). Tissue was additionally stained with MUB40-Cy5 (1 μg/mL, magenta). DNA was stained with Dapi (blue).

The subject of data set [6] is Colonic goblet cell granules. The experiment in a line: Fluorescent labelling of colonic goblet cell granules on fixed slides. As to conditions: 1 μg/mL. The data set is classed as cell-based, human. The method, then: as §1, §2
The conditions of data set [7]: Coïc et al., 2012; cited from earlier work.

As to `CC[C@@H](C)[C@@H](NC(=O)[C@@H](CCCCN)NC(=O)[C@@H](CCCCN)NC(=O)[C@@H](Cc1ccccc1)NC(=O)[C@@H](CCC(=O)O)NC(=O)CNC(=O)[C@@H](CC(=O)O)NC(=O)CNC(=O)[C@@H](Cc1ccc(O)cc1)NC(=O)[C@@H](CCC(=O)O)NC(=O)[C@@H](CC(C)C)NC(=O)[C@@H](Cc1ccccc1)NC(=O)[C@@H](CCCCN)NC(=O)[C@@H](CC(=O)O)NC(=O)[C@@H](CC(N)=O)NC(=O)[C@@H](Cc1ccccc1)NC(=O)[C@H]1CCCN1C(=O)[C@@H](C)NC(=O)CNC(=O)[C@@H](CCC(=O)O)NC(=O)[C@@H](CCCCN)NC(=O)[C@@H](Cc1ccccc1)NC(=O)[C@@H](CC(=O)O)NC(=O)[C@@H](CC(N)=O)NC(=O)[C@@H](CC(=O)O)NC(=O)[C@@H](CC(=O)O)NC(=O)[C@H](NC(=O)[C@@H](CC(N)=O)NC(=O)[C@@H](CC(=O)O)NC(=O)[C@@H](CCC(N)=O)NC(=O)[C@@H](Cc1ccccc1)NC(=O)[C@@H](Cc1ccc(O)cc1)NC(=O)[C@H](NC(=O)[C@H](NC(=O)[C@H](NC(=O)[C@@H](Cc1ccccc1)NC(=O)[C@@H](CS)NC(C)=O)[C@H](C)CC)C(C)C)[C@H](C)O)[C@H](C)O)C(=O)NCC(=O)N[C@H](CCC(=O)O)C(=O)N[C@H](C)C(=O)N[C@@H](C(N)=O)[C@H](C)O` [RI-MUB40], the “labelling of / binding to human colonic mucus” value in data set [1] was “validated”. Also, the “crossing of plasma membrane of living cells” value in data set [2] is “do not cross plasma membranes”.

Turning to “MUB40#1: 40-amino acid L-peptide, MUB70 C-terminal part, with N-ter added cysteine; L counterpart of RI-MUB40 (CTAEGIKKFEGDGYELFKDNFPAGEKFDNDDTNDQFYTVIF; MUB40-1 probe with Cysteine at N-terminal extremity)”, the “degradation by trypsin (in words)” value in data set [3] (listed as MUB40) is given as “rapidly degraded”. The “degradation by trypsin (in words)” value in data set [3] (listed as MUB40 #1) is given as “almost completely degraded within 3 h”. In data set [4], the “relative masses estimated from standard proteins' elution volume” value (from here on “relative masses estimated”) is recorded as 15.9, the “experimental Mr” value is 15.9 kDa and the oligomeric organization result was “trimer”. Further, the “labelling of colonic mucinous carcinoma” value in data set [5] is given as “similarly labelled”.

For “MUB40#2: overlapping 40-amino acid peptide covering the MUB70 sequence (CGYTDETIPYSTAEGIKKFEGDGYELFKDNFPAGEKFDNDD; MUB40-2 probe with Cysteine at N-terminal extremity)”, in data set [4], the “relative masses estimated” value is 22.0, the “experimental Mr” value was 22.0 kDa and the oligomeric organization entry is “tetramers”.

“MUB40#3: overlapping 40-amino acid peptide covering the MUB70 sequence (CDQMLRQDDLDGYTDETIPYSTAEGIKKFEGDGYELFKDNF; MUB40-3 probe with Cysteine at N terminal extremity)”: in data set [4], the “relative masses estimated” value is 20.5, the “experimental Mr” value is 20.5 kDa and the oligomeric organization entry is on record as “tetramers”.

Turning to “MUB40#4: overlapping 40-amino acid peptide covering the MUB70 sequence (CVHVQYIDGETDQMLRQDDLDGYTDETIPYSTAEGIKKFEG; MUB40-4 probe with Cysteine at N terminal extremity)”, in data set [4], the “relative masses estimated” value was 20.4, the “experimental Mr” value is recorded as 20.4 kDa and the oligomeric organization entry is reported as “tetramers”.

B1: MUB70-Cy5: MUB70 (SEQ ID NO: 11) conjugated to Cy5 (conjugate, listed as Lactobacillus reuteri)
chain: VHVQYIDGETDQMLRQDDLDGYTDETIPYSTAEGIKKFEGDGYELFKDNFPAGEKFDNDDTNDQFYTVIF
modifications: also: conjugated to Cy5 (site not given here)
Consider B1, for which the “labelling of colonic goblet cell granules” value in data set [6] is “not the case”.

B2: MUB70: 70 AA peptidic marker of human colonic mucus from L. reuteri MUcus Binding Associated Domains (peptide, listed as Lactobacillus reuteri)
chain: B1 chain
As to B2, in data set [7], the oligomeric organization result is reported as “trimer”.
